{"source": "patent US20120058906A1", "about": "(published 2012)", "key": {"[1]": {"target": "T1, Recombinant Human DLL4 (R&D Systems Cat#1506-D4/CF) (human, UniProt Q9NR61 27-524)", "T1 construct": "Purchased recombinant protein; also called delta-like protein 4", "experiment": "MSD ECL multi-spot plate, antigen immobilized; Fab 1.6 nM; blank spot 565;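 also: blank spot per well as comparator with Hit at signal to blank ratio of 4 or more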"}, "[2]": {"target": "T2, rHuman Erythropoietin R/Fc Chimera, CF (R&D Systems Cat#963-ER) (human, UniProt P19235 25-250)", "T2 construct": "Purchased Fc chimera; also called EPO R/Fc; Epo R; not shown: Fc portion of the purchased chimera", "T2 sequence": "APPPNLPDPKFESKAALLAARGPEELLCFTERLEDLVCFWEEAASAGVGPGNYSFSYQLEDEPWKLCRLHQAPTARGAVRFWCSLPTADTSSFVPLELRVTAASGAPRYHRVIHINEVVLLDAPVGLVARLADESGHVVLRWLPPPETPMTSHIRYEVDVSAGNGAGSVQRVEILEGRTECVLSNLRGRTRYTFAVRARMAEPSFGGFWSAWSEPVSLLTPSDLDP", "experiment": "MSD ECL multi-spot plate, antigen immobilized; Fab 1.6 nM; blank spot 565"}, "[3]": {"target": "T3, rHuman CD44/Fc Chimera, CF (R&D Systems Cat#3660-CD) (human, UniProt P16070 21-220)", "T3 construct": "Purchased Fc chimera; not shown: Fc portion of the purchased chimera", "experiment": "MSD ECL multi-spot plate, antigen immobilized; Fab 1.6 nM; blank spot 565"}, "[4]": {"target": "T4, rHuman HGF R/c-MET/Fc Chimera, CF (R&D Systems Cat#358-MT/CF) (human, UniProt P08581 25-932)", "T4 construct": "Purchased Fc chimera; also called HGF R/Fc; not shown: Fc portion of the purchased chimera", "experiment": "MSD ECL multi-spot plate, antigen immobilized; Fab 1.6 nM; blank spot 565"}, "[5]": {"target": "T5, rHuman P-Cadherin/Fc Chimera, CF (R&D Systems Cat#861-PC) (human, UniProt P22223 108-654)", "T5 construct": "Purchased Fc chimera; not shown: Fc portion of the purchased chimera", "experiment": "MSD ECL multi-spot plate, antigen immobilized; Fab 1.6 nM; blank spot 565"}, "[6]": {"target": "T6, rHuman EGF R/Fc Chimera, CF (R&D Systems Cat#344-ER) (human, UniProt P00533 25-645)", "T6 construct": "Purchased Fc chimera; not shown: Fc portion of the purchased chimera", "experiment": "MSD ECL multi-spot plate, antigen immobilized; Fab 1.6 nM; blank spot 565"}, "[7]": {"target": "T7, rHuman IGF-1 sR (IGF-1 sR), CF (R&D Systems Cat#391-GR) (human, UniProt P08069 31-932)", "T7 construct": "Purchased soluble receptor; also called insulin-like growth factor-1 soluble receptor; IGF-R1", "experiment": "MSD ECL multi-spot plate, antigen immobilized; Fab 1.6 nM; blank spot 565"}, "[8]": {"target": "T8, rHuman Notch-1/Fc Chimera, CF (R&D Systems Cat#3647-TK) (human, UniProt P46531 19-526)", "T8 construct": "Purchased Fc chimera; not shown: Fc portion of the purchased chimera", "experiment": "MSD ECL multi-spot plate, antigen immobilized; Fab 1.6 nM; blank spot 565"}, "[9]": {"target": "T9, Recombinant Human DLL4 (R&D Systems Cat#1506-D4/CF) (human, UniProt Q9NR61 27-524)", "T9 construct": "Bought recombinant protein; also called delta-like protein 4", "experiment": "ECL (MSD multi-spot), antigen on plate, Fab 0.5 nM"}, "[10]": {"target": "T10, rHuman IGF-1 sR (insulin-like growth factor-1 soluble receptor), CF (R&D Systems Cat#391-GR) (human, UniProt P08069 31-932)", "T10 construct": "Bought soluble receptor; also called IGF-R1", "experiment": "ECL (MSD multi-spot), antigen on plate, Fab 0.5 nM"}, "[11]": {"target": "T11, rHuman Erythropoietin R/Fc Chimera, CF (R&D Systems Cat#963-ER) (human, UniProt P19235 25-250)", "T11 construct": "Bought Fc chimera; also called EPO R/Fc; Epo R; not shown: Fc of the bought chimera", "T11 sequence": "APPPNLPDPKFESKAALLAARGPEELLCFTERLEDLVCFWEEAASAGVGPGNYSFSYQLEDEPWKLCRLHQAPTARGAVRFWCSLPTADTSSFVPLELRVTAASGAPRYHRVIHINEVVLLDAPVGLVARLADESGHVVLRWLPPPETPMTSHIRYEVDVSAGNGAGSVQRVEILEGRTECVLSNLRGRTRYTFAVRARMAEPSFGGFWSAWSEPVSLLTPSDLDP", "experiment": "ECL (MSD multi-spot), antigen on plate, Fab 0.5 nM"}, "[12]": {"target": "T12, rHuman ErbB2/Fc Chimera, CF (R&D Systems Cat#1129-ER) (human, UniProt P04626 23-652)", "T12 construct": "Bought Fc chimera; also called HER2/neu; not shown: Fc of the bought chimera", "experiment": "ECL (MSD multi-spot), antigen on plate, Fab 0.5 nM"}, "[13]": {"target": "T13, rHuman HGF R/c-MET/Fc Chimera, CF (R&D Systems Cat#358-MT/CF) (human, UniProt P08581 25-932)", "T13 construct": "Bought Fc chimera; also called HGF R/Fc; not shown: Fc of the bought chimera", "experiment": "ECL (MSD multi-spot), antigen on plate, Fab 0.5 nM"}, "[14]": {"target": "T14, rHuman EGF R/Fc Chimera, CF (R&D Systems Cat#344-ER) (human, UniProt P00533 25-645)", "T14 construct": "Bought Fc chimera; also called ErbB-1; not shown: Fc of the bought chimera", "experiment": "ECL (MSD multi-spot), antigen on plate, Fab 0.5 nM"}, "[15]": {"target": "T15, rHuman Notch-1/Fc Chimera, CF (R&D Systems Cat#3647-TK) (human, UniProt P46531 19-526)", "T15 construct": "Bought Fc chimera; not shown: Fc of the bought chimera", "experiment": "ECL (MSD multi-spot), antigen on plate, Fab 0.5 nM"}, "[16]": {"target": "T16, rHuman CD44/Fc Chimera, CF (R&D Systems Cat#3660-CD) (human, UniProt P16070 21-220)", "T16 construct": "Bought Fc chimera; not shown: Fc of the bought chimera", "experiment": "ECL (MSD multi-spot), antigen on plate, Fab 0.5 nM"}, "[17]": {"target": "T17, rHuman P-Cadherin/Fc Chimera, CF (R&D Systems Cat#861-PC) (human, UniProt P22223 108-654)", "T17 construct": "Bought Fc chimera; also called CDH3; not shown: Fc of the bought chimera", "experiment": "ECL (MSD multi-spot), antigen on plate, Fab 0.5 nM"}, "[18]": {"target": "T18, rHuman Erythropoietin R/Fc Chimera, CF (R&D Systems Cat#963-ER) (human, UniProt P19235 25-250)", "T18 construct": "Bought reagent; also called EPO R/Fc; Epo R; Fc part of the bought chimera not given", "T18 sequence": "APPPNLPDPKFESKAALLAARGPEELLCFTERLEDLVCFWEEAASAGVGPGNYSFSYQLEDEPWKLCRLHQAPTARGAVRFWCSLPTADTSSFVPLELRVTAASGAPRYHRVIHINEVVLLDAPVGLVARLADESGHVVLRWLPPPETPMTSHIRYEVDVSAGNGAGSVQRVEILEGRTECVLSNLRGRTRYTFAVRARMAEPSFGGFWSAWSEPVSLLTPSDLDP", "experiment": "ECL (MSD multi-spot), antigen spotted on plate; Fab 44.1 nM; blank spot 200;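 also: blank spot per well as comparator with Hit at signal to blank ratio of 4 or more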"}, "[19]": {"target": "T19, rHuman EGF R/Fc Chimera, CF (R&D Systems Cat#344-ER) (human, UniProt P00533 25-645)", "T19 construct": "Bought reagent; also called epidermal growth factor receptor; Fc part of the bought chimera not given", "experiment": "ECL (MSD multi-spot), antigen spotted on plate; Fab 44.1 nM; blank spot 200"}}}
{"binder": "Fab VH5-51_IGHD5-18*01>3_IGHJ4*01_G100K & V3-4_IGLJ1*01 (Fab, V domains shown, It was expressed as a Fab: CH1 with tags from Plasmid A and lambda CL from Plasmid E; also called Fab No. 22) VH: EVQLVQSGAEVKKPGESLKISCKGSGYSFTSYWIGWVRQMPGKGLEWMGIIYPGDSDTRYSPSFQGQVTISADKSISTAYLQWSSLKASDTAMYYCARRKYSYGYDYFDYWGQGTLVTVSS VL: QTVVTQEPSFSVSPGGTVTLTCGLSSGSVSTSYYPSWYQQTPGQAPRTLIYSTNTRSSGVPDRFSGSILGNKAALTITGAQADDESDYYCVLYMGSGISYVFGTGTKVTVL", "values": [{"measurement": "ECL signal", "setting": "[1]", "value": 2420, "unit": "ECL signal"}, {"measurement": "ECL signal", "setting": "[2]", "value": 899, "unit": "ECL signal"}, {"measurement": "ECL signal", "setting": "[3]", "value": 938, "unit": "ECL signal"}, {"measurement": "ECL signal", "setting": "[4]", "value": 1440, "unit": "ECL signal"}, {"measurement": "ECL signal", "setting": "[5]", "value": 811, "unit": "ECL signal"}, {"measurement": "ECL signal", "setting": "[6]", "value": 1180, "unit": "ECL signal"}, {"measurement": "ECL signal", "setting": "[7]", "value": 1440, "unit": "ECL signal"}, {"measurement": "ECL signal", "setting": "[8]", "value": 816, "unit": "ECL signal"}]}
{"binder": "Fab VH1-46_IGHD6-6*01_IGHJ1*01_S102A_S103P_S104Y_H111Y & L6_IGKJ1*01 (Fab, V domains shown, Fab made in E. coli; The heavy chain also carries CH1 with Flag and His tags from Plasmid A, and the light chain carries kappa CL from Plasmid C) VH: QVQLVQSGAEVKKPGASVKVSCKASGYTFTSYYMHWVRQAPGQGLEWMGIINPSGGSTSYAQKFQGRVTMTRDTSTSTVYMELSSLRSEDTAVYYCAREEYAPYSAEYFQYWGQGTLVTVSS VL: not shown", "values": [{"measurement": "ECL signal", "setting": "[9]", "value": 5150, "unit": "ECL signal"}, {"measurement": "ECL signal", "setting": "[10]", "value": 1660, "unit": "ECL signal"}, {"measurement": "ECL signal", "setting": "[11]", "value": 1840, "unit": "ECL signal"}, {"measurement": "ECL signal", "setting": "[12]", "value": 1720, "unit": "ECL signal"}, {"measurement": "ECL signal", "setting": "[13]", "value": 1690, "unit": "ECL signal"}, {"measurement": "ECL signal", "setting": "[14]", "value": 1750, "unit": "ECL signal"}, {"measurement": "ECL signal", "setting": "[15]", "value": 1760, "unit": "ECL signal"}, {"measurement": "ECL signal", "setting": "[16]", "value": 1560, "unit": "ECL signal"}, {"measurement": "ECL signal", "setting": "[17]", "value": 2630, "unit": "ECL signal"}]}
{"binder": "Fab VH1-46_IGHD3-10*01_IGHJ4*01 & B3_IGKJ1*01 (Fab, V domains shown, also called IGHV1-46*01) VH: QVQLVQSGAEVKKPGASVKVSCKASGYTFTSYYMHWVRQAPGQGLEWMGIINPSGGSTSYAQKFQGRVTMTRDTSTSTVYMELSSLRSEDTAVYYCAREYYYGSGSYYNDYFDYWGQGTLVTVSS VL: not shown", "values": [{"measurement": "ECL signal", "setting": "[18]", "value": 2390}, {"measurement": "ECL signal", "setting": "[19]", "value": 428}]}
